We go through eight variants from IntAct's records for PubMed 25910212.

Sequences and labels used below:
B1: Proton-coupled zinc antiporter SLC30A8 (Homo sapiens), Q8IWU4 (parent)
chain: MEFLERTYLVNDKAAKMYAFTLESVELQQKPVNKDQCPRERPEELESGGMYHCHSGSKPTEKGANEYAYAKWKLCSASAICFIFMIAEVVGGHIAGSLAVVTDAAHLLIDLTSFLLSLFSLWLSSKPPSKRLTFGWHRAEILGALLSILCIWVVTGVLVYLACERLLYPDYQIQATVMIIVSSCAVAANIVLTVVLHQRCLGHNHKEVQANASVRAAFVHALGDLFQSISVLISALIIYFKPEYKIADPICTFIFSILVLASTITILKDFSILLMEGVPKSLNYSGVKELILAVDGVLSVHSLHIWSLTMNQVILSAHVATAASRDSQVVRREIAKALSKSFTMHSLTIQMESPVDQDPDCLFCEDPCD
partner: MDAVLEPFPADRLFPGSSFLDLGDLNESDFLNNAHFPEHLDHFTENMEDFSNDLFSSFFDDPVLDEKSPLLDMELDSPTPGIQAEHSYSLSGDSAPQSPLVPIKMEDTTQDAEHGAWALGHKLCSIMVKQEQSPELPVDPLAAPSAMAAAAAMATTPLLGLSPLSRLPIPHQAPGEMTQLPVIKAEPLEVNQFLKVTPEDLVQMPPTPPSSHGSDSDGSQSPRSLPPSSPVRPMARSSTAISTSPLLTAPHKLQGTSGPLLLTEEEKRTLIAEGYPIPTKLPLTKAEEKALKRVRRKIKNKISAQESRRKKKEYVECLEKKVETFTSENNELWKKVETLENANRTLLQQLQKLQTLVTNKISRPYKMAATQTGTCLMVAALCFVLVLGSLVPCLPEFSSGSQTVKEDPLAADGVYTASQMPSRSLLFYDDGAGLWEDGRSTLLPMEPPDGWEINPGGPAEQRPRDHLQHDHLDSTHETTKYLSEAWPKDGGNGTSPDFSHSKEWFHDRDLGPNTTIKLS
B2: DNA mismatch repair protein Mlh1 (Homo sapiens), P40692 (parent)
chain: MSFVAGVIRRLDETVVNRIAAGEVIQRPANAIKEMIENCLDAKSTSIQVIVKEGGLKLIQIQDNGTGIRKEDLDIVCERFTTSKLQSFEDLASISTYGFRGEALASISHVAHVTITTKTADGKCAYRASYSDGKLKAPPKPCAGNQGTQITVEDLFYNIATRRKALKNPSEEYGKILEVVGRYSVHNAGISFSVKKQGETVADVRTLPNASTVDNIRSIFGNAVSRELIEIGCEDKTLAFKMNGYISNANYSVKKCIFLLFINHRLVESTSLRKAIETVYAAYLPKNTHPFLYLSLEISPQNVDVNVHPTKHEVHFLHEESILERVQQHIESKLLGSNSSRMYFTQTLLPGLAGPSGEMVKSTTSLTSSSTSGSSDKVYAHQMVRTDSREQKLDAFLQPLSKPLSSQPQAIVTEDKTDISSGRARQQDEEMLELPAPAEVAAKNQSLEGDTTKGTSEMSEKRGPTSSNPRKRHREDSDVEMVEDDSRKEMTAACTPRRRIINLTSVLSLQEEINEQGHEVLREMLHNHSFVGCVNPQWALAQHQTKLYLLNTTKLSEELFYQILIYDFANFGVLRLSEPAPLFDLAMLALDSPESGWTEEDGPKEGLAEYIVEFLKKKAEMLADYFSLEIDEEGNLIGLPLLIDNYVPPLEGLPIFILRLATEVNWDEEKECFESLSKECAMFYSIRKQYISEESTLSGQQSEVPGSIPNSWKWTVEHIVYKALRSHILPPKHFTEDGNILQLANLPDLYKVFERC
partner: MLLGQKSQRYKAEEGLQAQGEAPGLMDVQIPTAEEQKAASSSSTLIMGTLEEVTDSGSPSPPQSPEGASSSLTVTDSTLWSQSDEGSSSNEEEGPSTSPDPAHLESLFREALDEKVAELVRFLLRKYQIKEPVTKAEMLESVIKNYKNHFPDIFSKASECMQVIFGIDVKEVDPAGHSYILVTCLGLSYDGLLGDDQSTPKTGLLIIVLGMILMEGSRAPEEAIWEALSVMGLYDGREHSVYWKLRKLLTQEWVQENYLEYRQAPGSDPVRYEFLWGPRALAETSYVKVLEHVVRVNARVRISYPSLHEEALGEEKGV
B3: Sulfite oxidase, mitochondrial (Homo sapiens), P51687 (parent)
chain: MLLLHRAVVLRLQQACRLKSIPSRICIQACSTNDSFQPQRPSLTFSGDNSSTQGWRVMGTLLGLGAVLAYQDHRCRAAQESTHIYTKEEVSSHTSPETGIWVTLGSEVFDVTEFVDLHPGGPSKLMLAAGGPLEPFWALYAVHNQSHVRELLAQYKIGELNPEDKVAPTVETSDPYADDPVRHPALKVNSQRPFNAEPPPELLTENYITPNPIFFTRNHLPVPNLDPDTYRLHVVGAPGGQSLSLSLDDLHNFPRYEITVTLQCAGNRRSEMTQVKEVKGLEWRTGAISTARWAGARLCDVLAQAGHQLCETEAHVCFEGLDSDPTGTAYGASIPLARAMDPEAEVLLAYEMNGQPLPRDHGFPVRVVVPGVVGARHVKWLGRVSVQPEESYSHWQRRDYKGFSPSVDWETVDFDSAPSIQELPVQSAITEPRDGETVESGEVTIKGYAWSGGGRAVIRVDVSLDGGLTWQVAKLDGEEQRPRKAWAWRLWQLKAPVPAGQKELNIVCKAVDDGYNVQPDTVAPIWNLRGVLSNAWHRVHVYVSP
B4: Polyunsaturated fatty acid 5-lipoxygenase (Homo sapiens), P09917 (parent)
chain: MPSYTVTVATGSQWFAGTDDYIYLSLVGSAGCSEKHLLDKPFYNDFERGAVDSYDVTVDEELGEIQLVRIEKRKYWLNDDWYLKYITLKTPHGDYIEFPCYRWITGDVEVVLRDGRAKLARDDQIHILKQHRRKELETRQKQYRWMEWNPGFPLSIDAKCHKDLPRDIQFDSEKGVDFVLNYSKAMENLFINRFMHMFQSSWNDFADFEKIFVKISNTISERVMNHWQEDLMFGYQFLNGCNPVLIRRCTELPEKLPVTTEMVECSLERQLSLEQEVQQGNIFIVDFELLDGIDANKTDPCTLQFLAAPICLLYKNLANKIVPIAIQLNQIPGDENPIFLPSDAKYDWLLAKIWVRSSDFHVHQTITHLLRTHLVSEVFGIAMYRQLPAVHPIFKLLVAHVRFTIAINTKAREQLICECGLFDKANATGGGGHVQMVQRAMKDLTYASLCFPEAIKARGMESKEDIPYYFYRDDGLLVWEAIRTFTAEVVDIYYEGDQVVEEDPELQDFVNDVYVYGMRGRKSSGFPKSVKSREQLSEYLTVVIFTASAQHAAVNFGQYDWCSWIPNAPPTMRAPPPTAKGVVTIEQIVDTLPDRGRSCWHLGAVWALSQFQENELFLGMYPEEHFIEKPVKEAMARFRKNLEAIVSVIAERNKKKQLPYYYLSPDRIPNSVAI

Variants of B1 are the subject of one test. As to conditions: with cr3l1_human CREB3L1, Q96BA8.
As to R325W, the “effect of a mutation on the interaction” value is “disrupting interaction strength”.
As to R325Q, the “effect of a mutation on the interaction” value is listed as “with no effect”.

A further test covers variants of B2. As to conditions: with maga8_human MAGEA8, P43361.
S44F: the “effect of a mutation on the interaction” value is recorded as “disrupting interaction strength”.
Turning to G244D, the “effect of a mutation on the interaction” value is given as “with no effect”.
Take R472I: the “effect of a mutation on the interaction” value is “with no effect”.

The next test covers variants of B3. To be noted: with nup62_human NUP62, P37198.
Sequence of nup62_human NUP62, P37198 (P37198 whole entry): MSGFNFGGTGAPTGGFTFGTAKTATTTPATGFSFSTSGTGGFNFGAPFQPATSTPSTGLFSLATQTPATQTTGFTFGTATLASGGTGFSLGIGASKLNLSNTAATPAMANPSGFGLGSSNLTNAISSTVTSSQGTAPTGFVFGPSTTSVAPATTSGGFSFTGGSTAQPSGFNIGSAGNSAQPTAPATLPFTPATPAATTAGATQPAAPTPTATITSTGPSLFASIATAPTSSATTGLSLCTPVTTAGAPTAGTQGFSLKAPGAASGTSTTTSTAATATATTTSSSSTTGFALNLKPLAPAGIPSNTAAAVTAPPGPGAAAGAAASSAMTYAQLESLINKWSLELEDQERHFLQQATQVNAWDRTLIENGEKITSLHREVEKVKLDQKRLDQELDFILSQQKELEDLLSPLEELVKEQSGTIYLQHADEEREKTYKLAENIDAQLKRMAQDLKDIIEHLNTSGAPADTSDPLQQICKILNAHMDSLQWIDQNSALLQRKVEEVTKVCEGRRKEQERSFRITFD
Take W450R: the “effect of a mutation on the interaction” value is recorded as “disrupting interaction strength”.
Q396R: the “effect of a mutation on the interaction” value is given as “with no effect”.

In a further test the parent is B4. To be noted: with md1l1_human MAD1L1, Q9Y6D9.
Sequence of md1l1_human MAD1L1, Q9Y6D9 (Q9Y6D9 whole entry): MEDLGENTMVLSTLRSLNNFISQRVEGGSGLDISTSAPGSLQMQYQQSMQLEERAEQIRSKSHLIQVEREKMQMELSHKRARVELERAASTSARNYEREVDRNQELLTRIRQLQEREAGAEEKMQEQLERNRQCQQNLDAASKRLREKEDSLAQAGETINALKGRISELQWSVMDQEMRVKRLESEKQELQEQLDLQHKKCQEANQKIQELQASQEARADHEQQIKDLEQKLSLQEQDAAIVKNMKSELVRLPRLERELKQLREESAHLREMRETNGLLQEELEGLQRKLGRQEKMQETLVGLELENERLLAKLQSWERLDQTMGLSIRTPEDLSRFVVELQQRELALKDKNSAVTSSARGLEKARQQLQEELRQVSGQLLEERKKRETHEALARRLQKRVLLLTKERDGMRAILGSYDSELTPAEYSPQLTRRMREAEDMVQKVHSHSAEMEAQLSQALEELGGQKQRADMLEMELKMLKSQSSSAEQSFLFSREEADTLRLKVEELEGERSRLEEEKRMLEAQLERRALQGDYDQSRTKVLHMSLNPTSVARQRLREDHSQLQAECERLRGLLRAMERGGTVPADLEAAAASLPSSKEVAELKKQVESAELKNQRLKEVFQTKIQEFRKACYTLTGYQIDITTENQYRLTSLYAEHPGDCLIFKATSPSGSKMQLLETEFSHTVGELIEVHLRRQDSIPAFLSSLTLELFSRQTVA
With E254K, the “effect of a mutation on the interaction” value is on record as “with no effect”.

In the next test the parent is B4. To be noted: with hipl2_human HHIPL2, Q6UWX4.
Sequence of hipl2_human HHIPL2, Q6UWX4 (Q6UWX4 whole entry): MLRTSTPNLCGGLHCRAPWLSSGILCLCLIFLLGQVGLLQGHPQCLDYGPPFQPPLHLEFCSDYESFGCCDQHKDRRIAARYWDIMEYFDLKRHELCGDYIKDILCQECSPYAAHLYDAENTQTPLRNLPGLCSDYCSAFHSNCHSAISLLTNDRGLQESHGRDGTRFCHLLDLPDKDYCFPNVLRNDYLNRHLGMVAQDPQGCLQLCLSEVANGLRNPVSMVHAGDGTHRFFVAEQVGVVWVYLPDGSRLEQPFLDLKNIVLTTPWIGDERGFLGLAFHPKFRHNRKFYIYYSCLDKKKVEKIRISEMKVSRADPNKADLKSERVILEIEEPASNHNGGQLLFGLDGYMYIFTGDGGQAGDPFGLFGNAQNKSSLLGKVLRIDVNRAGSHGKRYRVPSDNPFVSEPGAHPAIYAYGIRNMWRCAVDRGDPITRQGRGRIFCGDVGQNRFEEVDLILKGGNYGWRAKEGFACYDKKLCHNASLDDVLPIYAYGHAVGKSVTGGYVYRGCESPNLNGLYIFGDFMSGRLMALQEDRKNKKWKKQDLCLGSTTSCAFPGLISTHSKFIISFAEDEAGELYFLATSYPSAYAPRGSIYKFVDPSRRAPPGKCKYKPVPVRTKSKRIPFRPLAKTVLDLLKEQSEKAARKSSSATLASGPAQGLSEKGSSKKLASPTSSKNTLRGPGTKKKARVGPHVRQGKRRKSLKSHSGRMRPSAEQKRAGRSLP
In the case of E254K, the “effect of a mutation on the interaction” value is recorded as “with no effect”.

In the next test the parent is B4. To be noted: with syce1_human SYCE1, Q8N0S2.
Sequence of syce1_human SYCE1, Q8N0S2 (Q8N0S2 whole entry): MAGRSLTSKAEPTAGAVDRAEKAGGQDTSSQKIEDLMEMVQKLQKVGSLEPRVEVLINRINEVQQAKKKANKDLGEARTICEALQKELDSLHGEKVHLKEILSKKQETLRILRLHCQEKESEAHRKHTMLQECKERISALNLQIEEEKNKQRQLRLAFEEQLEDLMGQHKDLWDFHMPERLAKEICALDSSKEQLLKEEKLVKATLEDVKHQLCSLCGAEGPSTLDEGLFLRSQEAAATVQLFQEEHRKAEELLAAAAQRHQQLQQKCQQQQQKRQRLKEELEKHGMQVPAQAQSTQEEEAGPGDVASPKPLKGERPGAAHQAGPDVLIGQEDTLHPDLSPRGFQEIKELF
With E254K, the “effect of a mutation on the interaction” value is reported as “with no effect”.
